Legend:
[1] = target: rat BV8S2 TCR of the A1 T-cell hybridoma (C14/BW12-12A1), specific for Gp-BP-72-89 (rat); test: flow cytometry on A1 hybridoma
[2] = target: rat BV8S2 TCR of the A1 T-cell hybridoma (C14/BW12-12A1), specific for Gp-BP-72-89 (rat); test: flow cytometry on A1 hybridoma, 10 µM complex, 17 h at 4 C, detection with OX6-PE
[3] = target: TCR of the MBP-69-89 specific short-term rat T-cell line (rat); test: cell-based or functional assay
[4] = target: rat BV8S2 TCR of the A1 T-cell hybridoma (C14/BW12-12A1), specific for Gp-BP-72-89 (rat); test: flow cytometry on A1 hybridoma with directly A488-labelled complex, 3 h at 4 C
[5] = target: TCR of the cardiac myosin CM-2-specific cell line (rat); test: flow cytometry on CM-2 cell line (blocked with unconjugated OX6), 10 µM complex, detection with OX6-PE

B1: β1α1/MBP-69-89 complex (rat RT1.B β1α1 construct loaded with MBP-69-89 peptide) (peptide-MHC)
chain: MGRDSPRDFVYQFKGLCYYTNGTQRIRDVIRYIYNQEEYLRYDSDVGEYRALTELGRPSAEYFNKQYLEQTRAELDTVCRHNYEGSEVRTSLRRLGGQDDIEADHVAAYGINIYQYYESRGQFTHEFDGDEEFYVDLDKKETIWRIPEFGQLTSFDPQGGLQNIAIIKHNLEILMKRSNSTQAVN
peptide: GSLPQKSQRSQDENPVVHF
[1]
  fold increase in MFI over background: 10 fold
[2]
  mean fluorescence intensity (MFI): 800 Units
[3]
  inhibition of proliferation ([3H]thymidine) of MBP-69-89 specific T-cell line after pre-treatment with 10 nM complex: > 90%

B2: A488-conjugated β1α1 loaded with MBP-69-89 (peptide-MHC)
chain: MGRDSPRDFVYQFKGLCYYTNGTQRIRDVIRYIYNQEEYLRYDSDVGEYRALTELGRPSAEYFNKQYLEQTRAELDTVCRHNYEGSEVRTSLRRLGGQDDIEADHVAAYGINIYQYYESRGQFTHEFDGDEEFYVDLDKKETIWRIPEFGQLTSFDPQGGLQNIAIIKHNLEILMKRSNSTQAVN
peptide: GSLPQKSQRSQDENPVVHF
modifications: Alexa-488 dye conjugated (molar ratio dye/protein=1), site not stated
[4]
  MCI: 300 Units

B3: β1α1/CM-2 complex (rat RT1.B β1α1 construct loaded with cardiac myosin peptide CM-2) (peptide-MHC)
chain: MGRDSPRDFVYQFKGLCYYTNGTQRIRDVIRYIYNQEEYLRYDSDVGEYRALTELGRPSAEYFNKQYLEQTRAELDTVCRHNYEGSEVRTSLRRLGGQDDIEADHVAAYGINIYQYYESRGQFTHEFDGDEEFYVDLDKKETIWRIPEFGQLTSFDPQGGLQNIAIIKHNLEILMKRSNSTQAVN
peptide: KLELQSALEEAEASLEH
[5]
  mean fluorescence intensity (MFI): 1800 Units

B4: β1α1/MBP-55-69 complex (rat RT1.B β1α1 loaded with Gp-MBP-55-69 peptide) (peptide-MHC)
chain: MGRDSPRDFVYQFKGLCYYTNGTQRIRDVIRYIYNQEEYLRYDSDVGEYRALTELGRPSAEYFNKQYLEQTRAELDTVCRHNYEGSEVRTSLRRLGGQDDIEADHVAAYGINIYQYYESRGQFTHEFDGDEEFYVDLDKKETIWRIPEFGQLTSFDPQGGLQNIAIIKHNLEILMKRSNSTQAVN
peptide: SGKDSHHAARTTHYG
[3]
  inhibition of proliferation ([3H]thymidine) of MBP-69-89 specific T-cell line after pre-incubation with 20 µM complex: 27%
